Results on five sequences are retold here after the supplement of paper PMC5998384.

Data set [1] deals with HeLa Kyoto. Description: solubility change mitosis vs G1/S (difference of NP-40 vs SDS log2 ratios) (log2 ratio difference); higher = more soluble in mitosis.
Data set [2] concerns HeLa Kyoto. Put plainly: melting temperature (median over replicates), in situ; higher = more thermally stable.
In data set [3] the test system is HeLa Kyoto. Put plainly: thermal stability score vs G1/S (z-score of summed log2 fold changes over temperatures); higher = more thermally stable than in G1/S.
Data set [4] deals with HeLa Kyoto. Description: solubility in G1/S (NP-40 vs SDS abundance) (log2 ratio); higher = more soluble. As to conditions: cell cycle stage: G1/S.
Setting [5] is: cell cycle stage: early G1 (4.5 h after nocodazole release).
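Throughout, for melting temperature (median over replicates), in situ: HeLa Kyoto cells synchronized by double thymidine or nocodazole block, proteins quantified by TMT10plex mass spectrometry, three independent biological replicates.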
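Throughout, for solubility change mitosis vs G1/S (difference of NP-40 vs SDS log2 ratios): synchronized HeLa Kyoto cells (double thymidine block for G1/S, nocodazole release for mitosis), protein amounts in NP-40 versus SDS lysates quantified by mass spectrometry, three biological replicates.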
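Throughout, for solubility in G1/S (NP-40 vs SDS abundance): HeLa Kyoto cells arrested at G1/S by double thymidine block, proteins quantified by TMT10plex mass spectrometry in mild NP-40 versus SDS extracts, three biological replicates.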
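Throughout, for thermal stability score vs G1/S (z-score of summed log2 fold changes over temperatures): synchronized HeLa Kyoto cells, proteins quantified by TMT10plex mass spectrometry, three biological replicates, mitosis taken 0.5 h after nocodazole release, G1/S directly after double thymidine block.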

In the case of “MAAEIHSRPQSSRPVLLSKIEGHQDAVTAALLIPKEDGVITASEDRTIRVWLKRDSGQYWPSIYHTMASPCSAMAYHHDSRRIFVGQDNGAVMEFHVSEDFNKMNFIKTYPAHQNRVSAIIFSLATEWVISTGHDKCVSWMCTRSGNMLGRHFFTSWASCLQYDFDTQYAFVGDYSGQITLLKLEQNTCSVITTLKGHEGSVACLWWDPIQRLLFSGASDNSIIMWDIGGRKGRTLLLQGHHDKVQSLCYLQLTRQLVSCSSDGGIAVWNMDVSREEAPQWLESDSCQKCEQPFFWNIKQMWDTKTLGLRQHHCRKCGQAVCGKCSSKRSSYPVMGFEFQVRVCDSCYDSIKDEDRTSLATFHEGKHNISHMSMDIARGLMVTCGTDRIVKIWDMTPVVGCSLATGFSPH [WDFY1]”, in the data set on HeLa Kyoto [1], the “solubility change mitosis (log2)” value was -0.0745. The melting temperature amounted to 54.2 °C with HeLa Kyoto [2] (cell cycle stage: G1/S) and 54.5 °C in the data set with HeLa Kyoto [2] (cell cycle stage: mitosis). In addition, the thermal stability score in the data set on HeLa Kyoto [3] (setting [5]) is 1.13; with HeLa Kyoto [3] (cell cycle stage: mitosis), -1.04. Moreover, the “solubility in G1/S (log2)” value in the data set on HeLa Kyoto [4] is -0.607.

For “MAAERGAGQQQSQEMMEVDRRVESEESGDEEGKKHSSGIVADLSEQSLKDGEERGEEDPEEEHELPVDMETINLDRDAEDVDLNHYRIGKIEGFEVLKKVKTLCLRQNLIKCIENLEELQSLRELDLYDNQIKKIENLEALTELEILDISFNLLRNIEGVDKLTRLKKLFLVNNKISKIENLSNLHQLQMLELGSNRIRAIENIDTLTNLESLFLGKNKITKLQNLDALTNLTVLSMQSNRLTKIEGLQNLVNLRELYLSHNGIEVIEGLENNNKLTMLDIASNRIKKIENISHLTELQEFWMNDNLLESWSDLDELKGARSLETVYLERNPLQKDPQYRRKVMLALPSVRQIDATFVRF [PPP1R7]”, the “solubility change mitosis (log2)” value in the data set on HeLa Kyoto [1] is 0.033. Also, the values for the melting temperature in the data set on HeLa Kyoto [2] (cell cycle stage: G1/S) and in the data set on HeLa Kyoto [2] (cell cycle stage: mitosis) were 52.7 °C and 52.8 °C, respectively. In addition, the values for the thermal stability score with HeLa Kyoto [3] (setting [5]) and in the data set with HeLa Kyoto [3] (cell cycle stage: mitosis) were -1.16 and -2.37, respectively. Further, the “solubility in G1/S (log2)” value with HeLa Kyoto [4] amounted to 0.332.

As for “MAAERQEALREFVAVTGAEEDRARFFLESAGWDLQIALASFYEDGGDEDIVTISQATPSSVSRGTAPSDNRVTSFRDLIHDQDEDEEEEEGQRFYAGGSERSGQQIVGPPRKKSPNELVDDLFKGAKEHGAVAVERVTKSPGETSKPRPFAGGGYRLGAAPEEESAYVAGEKRQHSSQDVHVVLKLWKSGFSLDNGELRSYQDPSNAQFLESIRRGEVPAELRRLAHGGQVNLDMEDHRDEDFVKPKGAFKAFTGEGQKLGSTAPQVLSTSSPAQQAENEAKASSSILIDESEPTTNIQIRLADGGRLVQKFNHSHRISDIRLFIVDARPAMAATSFILMTTFPNKELADESQTLKEANLLNAVIVQRLT [NSFL1C]”, the “solubility change mitosis (log2)” value in the data set on HeLa Kyoto [1] was 0.0342. The melting temperature was 51.7 °C in the data set on HeLa Kyoto [2] (cell cycle stage: G1/S) and 52 °C in the data set on HeLa Kyoto [2] (cell cycle stage: mitosis). Also, the thermal stability score was -1.97 in the data set on HeLa Kyoto [3] (setting [5]) and 1.13 in the data set with HeLa Kyoto [3] (cell cycle stage: mitosis). In the data set with HeLa Kyoto [4], the “solubility in G1/S (log2)” value was 0.384.

Turning to “MAAESALQVVEKLQARLAANPDPKKLLKYLKKLSTLPITVDILAETGVGKTVNSLRKHEHVGSFARDLVAQWKKLVPVERNAEPDEQDFEKSNSRKRPRDALQKEEEMEGDYQETWKATGSRSYSPDHRQKKHRKLSELERPHKVSHGHERRDERKRCHRMSPTYSSDPESSDYGHVQSPPSCTSPHQMYVDHYRSLEEDQEPIVSHQKPGKGHSNAFQDRLGASQERHLGEPHGKGVVSQNKEHKSSHKDKRPVDAKSDEKASVVSREKSHKALSKEENRRPPSGDNAREKPPSSGVKKEKDREGSSLKKKCLPPSEAASDNHLKKPKHRDPEKAKLDKSKQGLDSFDTGKGAGDLLPKVKEKGSNNLKTPEGKVKTNLDRKSLGSLPKVEETDMEDEFEQPTMSFESYLSYDQPRKKKKKIVKTSATALGDKGLKKNDSKSTGKNLDSVQKLPKVNKTKSEKPAGADLAKLRKVPDVLPVLPDLPLPAIQANYRPLPSLELISSFQPKRKAFSSPQEEEEAGFTGRRMNSKMQVYSGSKCAYLPKMMTLHQQCIRVLKNNIDSIFEVGGVPYSVLEPVLERCTPDQLYRIEEYNHVLIEETDQLWKVHCHRDFKEERPEEYESWREMYLRLQDAREQRLRVLTKNIQFAHANKPKGRQAKMAFVNSVAKPPRDVRRRQEKFGTGGAAVPEKIKIKPAPYPMGSSHASASSISFNPSPEEPAYDGPSTSSAHLAPVVSSTVSYDPRKPTVKKIAPMMAKTIKAFKNRFSRR [TCEB3]”, the “solubility change mitosis (log2)” value in the data set with HeLa Kyoto [1] was 0.454. Further, the melting temperature in the data set with HeLa Kyoto [2] (cell cycle stage: G1/S) worked out at 47.8 °C; with HeLa Kyoto [2] (cell cycle stage: mitosis) it was 49.2 °C. Further, the thermal stability score with HeLa Kyoto [3] (setting [5]) was 0.335; with HeLa Kyoto [3] (cell cycle stage: mitosis), 1.24. Also, the “solubility in G1/S (log2)” value in the data set on HeLa Kyoto [4] was -0.429.

For “MAAETRNVAGAEAPPPQKRYYRQRAHSNPMADHTLRYPVKPEEMDWSELYPEFFAPLTQNQSHDDPKDKKEKRAQAQVEFADIGCGYGGLLVELSPLFPDTLILGLEIRVKVSDYVQDRIRALRAAPAGGFQNIACLRSNAMKHLPNFFYKGQLTKMFFLFPDPHFKRTKHKWRIISPTLLAEYAYVLRVGGLVYTITDVLELHDWMCTHFEEHPLFERVPLEDLSEDPVVGHLGTSTEEGKKVLRNGGKNFPAIFRRIQDPVLQAVTSQTSLPGH [METTL1]”, the “solubility change mitosis (log2)” value with HeLa Kyoto [1] was -0.075. Besides, the melting temperature came out at 52.4 °C in the data set on HeLa Kyoto [2] (cell cycle stage: G1/S) and 54.7 °C in the data set on HeLa Kyoto [2] (cell cycle stage: mitosis). The figures for the thermal stability score in the data set with HeLa Kyoto [3] (setting [5]) and in the data set with HeLa Kyoto [3] (cell cycle stage: mitosis) were 0.937 and 2.85, respectively. Further, the “solubility in G1/S (log2)” value in the data set on HeLa Kyoto [4] is 0.231.
